From the supplement of paper PMC9170038

System: MS2 coat protein
Test: apparent KD of MS2 coat protein; higher = weaker reporter binding
Conditions: Eterna round: R107
Experimental: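 RNA-MaP round R107: designed RNA switches with theophylline, tryptophan, arginine or FMN aptamers are transcribed on-chip within common flanks. They are titrated with SNAP-549-labelled MS2 coat protein in RNA-MaP buffer (100 mM Tris pH 7.5, 80 mM KCl, 4 mM MgCl2), without ligand or with the indicated ligand. Median apparent KD per design.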

[1] = input ligand: theophylline 20 uM
[2] = input ligand: theophylline 2 mM
[3] = input ligand: tryptophan 2.4 mM

Sequence | apparent KD of MS2 coat protein (input ligand: arginine 13.2 mM) [µM] | apparent KD of MS2 coat protein (input ligand: none) [µM] | apparent KD of MS2 coat protein [1] [µM] | apparent KD of MS2 coat protein [2] [µM] | apparent KD of MS2 coat protein [3] [µM]
UCGCUCUGGGUGAAUUCCGGAGAUGUGGAAGGAGCGGACGAAAGUCCAGGUAGGUCGCCAUCGAACAUGAGGAUCACCCAUGUAC [Same State - Arginine A (Freestyle 24)] | 0.0558 | 0.0932 | 0.105 | 0.165 | 0.0937
UCGUGAGUUUCGGAUACCAGUGUGGUCGAUACAUGAGGAUCACCCAUGUUAGAGGAGGUACACCCUUGGCAGCCGGCUGUGGCGG [hlhmullin] | 0.0314 | 0.0235 | 0.0354 | 0.0181 | 0.025
GGAUGGAACUCGGCCGCCACUGGUGAUCCUAAUGUACAUGAGGAUCACCCAUGUACAUGAGAAGAUAGGACCGGGAGAUAAGGGA [Tryptophan B V4 (+4G)] | 0.0199 | 0.0193 | 0.0243 | 0.0263 | 0.0207
UCACAUGAGGAUCACCCAUGUACAGGCGAUACCAGCCGUACAUUGGGCCCUUGGCAGCGCAUCGAGACCUUUAUAAGCACCUCGG [Ceusbi] | 0.0245 | – | 0.127 | – | 0.0816
ACAUGAGGAUCACCCAUGUAUUACCGGGAAGGAGCGCGUAAGGACGCAGGUAGGUCGCUCGGCGUCCGGCCGCAAGGCUGGACGA [#1 Same State - Arginine A Attempt #17 (HarryS)] | 0.0123 | 0.0163 | 0.0181 | 0.0164 | 0.0152
AGACAUGAGGAUCACCCAUGUAGUAUGGAUACCAGAUCCAGAUUUAUCCCUUGGCAGCUGUGGUACAGCGAUGGAUCGCUCCUAG [Exclusion - Theophylline A (Freestyle 11)] | 0.0226 | – | 0.034 | – | 0.028
GCACCAGGUACGGAUACCAGCUGCCAGCGUUACAUGAGGAUCACCCAUGUGAUCUGAAGUAGCCCUUGGCAGCUGUACCUGGUGC [SSThB NP+V+V2 #4 +-Same Structure] | 0.0967 | – | 0.207 | – | 0.062
GCAAUACAUGAGGAUCACCCAUGUGCAGAUACCAGAGGUGUAUGCCUCCCUUGGCAGCUGCGACGCUCUGGCAUCUUGUGGGAUG [Same State Theophylline A GF19] | 0.0222 | – | 0.0737 | – | 0.052
AGUGUUAUAACUGAUACCAGACCUUUGCUUAUACAUGAGGAUCACCCAUGUAAAAUGGCUGUCCCUUGGCAGCAGAGAAUACACA [#07 Same State - Theophylline B] | 0.0429 | – | 0.0452 | – | 0.0471
GGCUGUCAUAGGAGGUGAAAUAUACUCGAAGGAGCGUCAUAGUAGGCAGGUAGGUCGCGAGACAUGAGGAUCACCCAUGUAGAGA [yyumullin] | 0.0389 | 0.0539 | 0.162 | 0.0677 | 0.0564
AAAAUAAAGGCGGCCGCCACUAGAGUUAGGCAUAUGUACUGGGUAACAUGAGGAUCACCCAUGUAUAGGACCGGGCCAUAAUAAA [Same State - Tryptophan B (Freestyle 1)] | 0.0517 | 0.0399 | 0.0462 | 0.0334 | 0.0365
AUACCUAAUGUUACAUUUUCCUUUUCAGAUACCAGACUUUACGUUGUCCCUUGGCAGCUGUAUCACAUGAGGAUCACCCAUGUUG [JR_SSTheophyA_Sub009] | 0.0173 | – | 0.0207 | – | 0.017
UUACAUGAGGAUCACCCAUGUUUACUAUGUCGAGGACCGGUACGGCCGCCACUCGUAUUUGAUGAUUUAGGUGCCACAAGUUAUU [JR_Nu_ExcTryptoA_Sub024] | 0.0161 | – | 0.0266 | 0.0226 | –
AUAUCAUAGAGUGAUACCAGACUACAUGAGGAUCACCCAUGUGACAUUUAAAUAUCAUUUGUCCCUUGGCAGCACAUUAAGUACA [JR_Nu_ExcTheophyB_Sub020] | 0.0506 | – | 0.0798 | – | 0.0616
ACAUGAGGAUCACCCAUGUGCCGUCUUGAUACCAGACGCGAAGUAGUCCCUUGGCAGCAACUACGUGACGGUCGCGCAUGUGUAG [bcxmullin] | 0.0178 | – | 0.0214 | – | 0.0161
UAAGCGCGAGGAGACGGAACCAAUCUUGUUCGAGGACCGGUACGGCCGCCACUCGGCGUAAAACAUGAGGAUCACCCAUGUGCAA [theeternabot_exclusion_MS2_Trp_A_18] | 0.0108 | 0.0132 | 0.0156 | 0.0161 | 0.0164
GCUGAACAUGAGGAUCACCCAUGUCCGGAUACCAGCGGACCUCAUCGCCCUUGGCAGCCGAACCAACAGCUUGUGGUGUUCACUC [theeternabot_sameState_MS2_Theo_A_10] | 0.0322 | – | 0.0582 | – | 0.0372
AACUGGAUCAGUGAUACCAGAGACAUGAGGAUCACCCAUGUACAUGAGGAUCACCCAUGUCUCCCUUGGCAGCACAGCAGGGAGC [Exclusion Theophylline B GF 17] | 0.0328 | 0.07 | 0.0703 | 0.442 | 0.0641

Sequence | apparent KD of MS2 coat protein (input ligand: arginine 13.2 mM) [µM] | apparent KD of MS2 coat protein (input ligand: none) [µM] | apparent KD of MS2 coat protein [1] [µM] | apparent KD of MS2 coat protein [2] [µM] | apparent KD of MS2 coat protein [3] [µM]
CCUGAUAACUGAAGGAGCGAGAAACCCUACAUGAGGAUCACCCAUGUAUACACGGGAACUUCUCAGGUAGGUCGCAGUAUGUCGG [Rienat] | 0.0712 | 0.0802 | 0.106 | 0.145 | 0.093
GUUGUAUACUCGGCCGCCACUGAGAGAGUCAUGUAAACAUGAGGAUCACCCAUGUAAUAUAUAUACAGGACCGGGAGUGUGGUAA [4.G] | 0.00931 | 0.0128 | 0.016 | 0.012 | 0.0118
AUAAUUGGGUUAAUUAGUUUUAGGUCCAGUCGAGGACCGGUACGGCCGCCACUCGUUCCGAGAUACAUGAGGAUCACCCAUGUUA [JR_ExcTryptoA_Sub015] | 0.0173 | – | 0.0345 | 0.031 | –
UAUCGUCAGACGGCCGCCACUAGAACAUGAGGAUCACCCAUGUACGGCCGCUCGGUCCUCAUGACUAGGACCGGGUCUGACGAAU [(Trp1)-(Ms2)-(T)'-(M)'-(Trp2)_Design22] | 0.0108 | 0.00731 | 0.0169 | 0.012 | 0.00996
CUGUUUGUUUGGGUCUGUCAAAAGAACGAUACCAGCCGCAUUAUGGGCCCUUGGCAGCGUAGGACAUGAGGAUCACCCAUGUACG [theeternabot_exclusion_MS2_Theo_A_16] | 0.016 | – | 0.022 | – | 0.0162
GCCGCCGGUGCUUCAUUCCCUGAGCGACGGCGAGGACCGGUACGGCCGCCACUCGGCUCGGUACAUGAGGAUCACCCAUGUCUUU [theeternabot_exclusion_MS2_Trp_A_11] | 0.0307 | – | 0.0584 | 0.0608 | –
CAAGACAUGAGGAUCACCCAUGUGGUGUACCGAGGACCGGUACGGCCGCCACUCGUUCAUCGGUCGACAAGCUACCCUUCAAGGU [theeternabot_sameState_MS2_Trp_A_7] | 0.0255 | – | 0.0404 | 0.0277 | –
ACAUGAGGAUCACCCAUGUUGAGCACAGAAGGAGCGUGAUUAAGCACAGGUAGGUCGCUGUACUUAUCGAGCGUUAGCUCGAUAC [JR_Nu_SSArginiA_Sub030] | 0.021 | 0.0223 | 0.0326 | 0.0283 | 0.0228
GGACCAUGGAGCGAUACCAGCUUGAGUGUACUGGCCAGGUACAUGAGGAUCACCCAUGUAAGCCCUUGGCAGCGCUCCAUGGUCC [#1 Exclusion - Theophylline B Attempt #25 (HarryS)] | 0.00838 | 0.00995 | 0.0147 | 0.0308 | 0.0123
CCGAACAUGAGGAUCACCCAUGUUAGGGAUACCAGCUCAGACAUGGGCCCUUGGCAGCUCUAUAGCUGACGAAAGUCAGCAUCGG [#15 SameState-TheophyllineA] | 0.0361 | 0.035 | 0.0463 | 0.0237 | 0.0354
CGACGAGACCUGGAUACCAGCGACAUGAGGAUCACCCAUGUAUGUGGAUCAGCCAUGAUAUGCCCUUGGCAGCCACCGAGGUCGG [PPPMULLIN] | 0.00781 | 0.0116 | 0.0208 | 0.0317 | 0.0123
CCGGGCCCGGGCGACCGGGCCCGGACUGAAGGAGCGGGAAUAAACCCAGGUAGGUCGCAGAGAUCCACAUGAGGAUCACCCAUGU [!0.V] | 0.0317 | 0.0309 | 0.0496 | 0.0509 | 0.0486
UCGUGUAUAUCGGAUACCAGUGAAAACGAUACAUGAGGAUCACCCAUGUGAGUUGAUGUACACCCUUGGCAGCUGUAUAUAUCUA [fokullin] | 0.0161 | – | 0.0227 | – | 0.0186
UAUAUAUAUCACUAACUGUUCUUGAGGUCUCGAGGACCGGUACGGCCGCCACUCGUACCGCCUCACAUGAGGAUCACCCAUGUCC [XTryp A #1] | 0.0522 | – | 0.0855 | 0.0976 | –
AGCCACUCGAGUGAUCCUCACGAGUGGCUACGAGGACCGGUACGGCCGCCACUCGAAUUAACAUGAGGAUCACCCAUGUAAUCAC [Brourdmod05] | 0.0811 | – | 0.135 | 0.597 | –
GGGCCCGGGCCGCGCGCGGCCCGGGCCCAACGAGGACCGGUACGGCCGCCACUCGAACGAGUGGGUACAUGAGGAUCACCCAUGU [Aaa] | 0.0257 | 0.027 | 0.0418 | 0.045 | 0.0333
CGAGCUGACGGAAGGAGCGAAGCCUACUCGGUGUUCCCACAUGAGGAUCACCCAUGUGGGCUUCAGGUAGGUCGCCGAACAGUCG [Vecequlala] | 0.0261 | 0.0407 | 0.061 | 0.0869 | 0.0324
